We go through seven substances from publication PMC5153404.

The target of assay [1] is Recombinant mature human gC1qR (residues 74-282) (UniProt Q07021). Put plainly: ELISA; gC1qR coated at 0.25, 0.5 and 1 μg/well; 2.5 μg/well of gh module or substitution mutant; 90 min at 37°C and 90 min at 4°C; detected with anti-MBP monoclonal antibody.
Assay [2] has the same target. Put plainly: ELISA. The following applies: 2.5 μg/well gh protein, 90 min at 37°C and 90 min at 4°C, parent: est. 100, read off a plot. For orientation: An ELISA detects its analyte on a solid surface through an enzyme-linked reagent.

Chain of Recombinant globular head module of the human C1q B chain (ghB), MBP fusion (from UniProt P02746) T175L (P02746 117-253, stated change not applied): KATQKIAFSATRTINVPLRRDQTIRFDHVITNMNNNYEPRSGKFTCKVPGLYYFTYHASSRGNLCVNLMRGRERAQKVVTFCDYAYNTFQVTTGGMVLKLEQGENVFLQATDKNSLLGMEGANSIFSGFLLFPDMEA
Chain of Recombinant globular head module of the human C1q B chain (ghB), MBP fusion (from UniProt P02746) R129A (P02746 117-253, stated change not applied): as above
Chain of Recombinant mature human gC1qR (residues 74-282) (Q07021 74-282): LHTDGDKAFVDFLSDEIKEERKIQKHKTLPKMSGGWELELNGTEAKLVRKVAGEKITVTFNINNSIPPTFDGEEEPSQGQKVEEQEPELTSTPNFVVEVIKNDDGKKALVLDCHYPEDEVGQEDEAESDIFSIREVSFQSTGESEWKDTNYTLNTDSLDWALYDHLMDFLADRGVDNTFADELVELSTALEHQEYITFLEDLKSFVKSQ
Chain of Recombinant globular head module of the human C1q C chain (ghC), MBP fusion (from UniProt P02747) L170E (P02747 115-245, stated change not applied): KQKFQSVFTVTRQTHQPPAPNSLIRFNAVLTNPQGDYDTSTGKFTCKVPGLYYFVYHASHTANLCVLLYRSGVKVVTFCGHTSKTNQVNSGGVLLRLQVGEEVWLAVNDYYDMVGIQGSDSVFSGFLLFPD
Chain of Recombinant globular head module of the human C1q C chain (ghC), MBP fusion (from UniProt P02747) R156E (P02747 115-245, stated change not applied): as above
Chain of Recombinant globular head module of the human C1q C chain (ghC), MBP fusion (from UniProt P02747) H101A (P02747 115-245, stated change not applied): as above

For “ghA-R162A, MBP fusion (from UniProt P02745 23-245) (domain or fragment)”, the percent reduction in binding against wild-type ghA in assay [1] was less than 70%.
For the substance “Recombinant globular head module of the human C1q B chain (ghB), MBP fusion (from UniProt P02746) T175L”, the percent of parent in assay [2] (0.25 μg/well gC1qR coated) was 62 % binding; in assay [2] (0.5 μg/well gC1qR coated), 56 % binding; in assay [2] (1 μg/well gC1qR coated), 68 % binding.
On to “Recombinant globular head module of the human C1q C chain (ghC), MBP fusion (from UniProt P02747) R156E”, for which the percent of parent in assay [2] (0.25 μg/well gC1qR coated) stood at 81 % binding; in assay [2] (0.5 μg/well gC1qR coated), 110 % binding; in assay [2] (1 μg/well gC1qR coated), 110 % binding.
As to “Recombinant globular head module of the human C1q B chain (ghB), MBP fusion (from UniProt P02746) R129A”, the percent of parent in assay [2] (0.25 μg/well gC1qR coated) worked out at 27 % binding; in assay [2] (0.5 μg/well gC1qR coated), 33 % binding; in assay [2] (1 μg/well gC1qR coated), 30 % binding.
As for “Recombinant globular head module of the human C1q C chain (ghC), MBP fusion (from UniProt P02747) L170E”, the results for the percent of parent in assay [2] (0.25 μg/well gC1qR coated), in assay [2] (0.5 μg/well gC1qR coated) and in assay [2] (1 μg/well gC1qR coated) were 62 % binding, 91 % binding and 100 % binding, respectively.
For the substance “ghB-H117D, MBP fusion (from UniProt P02746 28-253) (domain or fragment)”, in assay [1], the percent reduction in binding against wild-type ghB stood at 60%.
On to “Recombinant globular head module of the human C1q C chain (ghC), MBP fusion (from UniProt P02747) H101A”, for which the percent of parent amounted to 51 % binding in assay [2] (0.25 μg/well gC1qR coated) and 79 % binding in assay [2] (1 μg/well gC1qR coated).
